This note sets out measurements from publication PMC3064162.

For the assay, the target named is human C3b (human). The experiment in a line: SPR.

Substance “(R78G)FH1–4^V62 (from UniProt P08603 19-263) (domain or fragment)” gave a dissociation constant (Kd) of over 35 µM.
